Measured values as given in patent US20250011363A1, “OPTIMIZED SHORTENED PEPTIDE THAT BINDS TO ACETYLCHOLINE RECEPTOR, AND USE THEREOF” (SKINMED CO., LTD., priority 2021, published 2025).

Molecular target: acetylcholine receptor (Homo sapiens, UniProt P02708)
Experiment: SPR binding affinity (RU) of optimized 5mer/6mer/7mer peptides, Examples 6-7
Details: SPR, peptides tested at 10 μM
How it was run: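 Binding response (RU) to the human acetylcholine receptor was measured by SPR. Each 5mer or 6mer library peptide was applied at 10 μM, with sequences drawn from top and bottom amino-acid combinations.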

[1] = Resonance Units, 6mer-1 Bottom sequence (Table 11)

Sequence of acetylcholine receptor (P02708 21-457): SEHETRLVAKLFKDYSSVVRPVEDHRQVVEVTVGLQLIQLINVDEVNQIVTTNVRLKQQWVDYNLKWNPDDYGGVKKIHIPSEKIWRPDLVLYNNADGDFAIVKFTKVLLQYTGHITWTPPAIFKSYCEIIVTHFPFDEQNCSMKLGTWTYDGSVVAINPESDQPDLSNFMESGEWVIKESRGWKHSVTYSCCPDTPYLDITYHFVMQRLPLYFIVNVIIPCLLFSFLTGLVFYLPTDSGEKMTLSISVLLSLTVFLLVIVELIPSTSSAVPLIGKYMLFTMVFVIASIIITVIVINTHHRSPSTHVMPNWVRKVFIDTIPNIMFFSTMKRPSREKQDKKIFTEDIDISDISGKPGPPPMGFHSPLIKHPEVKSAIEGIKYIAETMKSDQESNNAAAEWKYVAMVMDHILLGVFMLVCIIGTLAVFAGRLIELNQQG

6mer-1-559 (RRRLTK)
Binding affinity (6mer-1 Top sequence): 139 Ru

6mer-1-560 (RRSFSK)
Binding affinity (6mer-1 Top sequence): 127 Ru

6mer-1-561 (RKVYLK)
Binding affinity (6mer-1 Top sequence): 131 Ru

6mer-1-562 (KRSYQR)
Binding affinity (6mer-1 Top sequence): 148 Ru

6mer-1-563 (RRSFTR)
Binding affinity (6mer-1 Top sequence): 139 Ru

6mer-1-564 (KRSITK)
Binding affinity (6mer-1 Top sequence): 139 Ru

6mer-1-565 (KRSIRR)
Binding affinity (6mer-1 Top sequence): 151 Ru

6mer-1-566 (KKSFCR)
Binding affinity (6mer-1 Top sequence): 148 Ru

6mer-1-567 (KKRVSR)
Binding affinity (6mer-1 Top sequence): 136 Ru

6mer-1-568 (KRWQQK)
Binding affinity (6mer-1 Top sequence): 147 Ru

6mer-1-569 (RRVITK)
Binding affinity (6mer-1 Top sequence): 148 Ru

6mer-1-570 (RKRLRK)
Binding affinity (6mer-1 Top sequence): 122 Ru

6mer-1-571 (RKLLCK)
Binding affinity (6mer-1 Top sequence): 154 Ru

6mer-1-572 (KRVLLK)
Binding affinity (6mer-1 Top sequence): 126 Ru

6mer-1-573 (KRVLLR)
Binding affinity (6mer-1 Top sequence): 126 Ru

6mer-1-574 (RKSYLR)
Binding affinity (6mer-1 Top sequence): 148 Ru

6mer-1-575 (KRWVRR)
Binding affinity (6mer-1 Top sequence): 148 Ru

6mer-1-576 (RKRQRR)
Binding affinity (6mer-1 Top sequence): 153 Ru

6mer-1-577 (KKQYQR)
Binding affinity (6mer-1 Top sequence): 128 Ru

6mer-1-578 (RKGQYK)
Binding affinity (6mer-1 Top sequence): 139 Ru

6mer-1-579 (KRSVRK)
Binding affinity (6mer-1 Top sequence): 148 Ru

6mer-1-580 (KKSLQK)
Binding affinity (6mer-1 Top sequence): 121 Ru

6mer-1-581 (KRGLYK)
Binding affinity (6mer-1 Top sequence): 139 Ru

6mer-1-582 (KRWFLK)
Binding affinity (6mer-1 Top sequence): 137 Ru

6mer-1-583 (KKVLYK)
Binding affinity (6mer-1 Top sequence): 139 Ru

6mer-1-584 (RKQVSK)
Binding affinity (6mer-1 Top sequence): 127 Ru

6mer-1-585 (RKSRQK)
Binding affinity (6mer-1 Top sequence): 144 Ru

6mer-1-586 (KRVICK)
Binding affinity (6mer-1 Top sequence): 136 Ru

6mer-1-587 (KKQLLK)
Binding affinity (6mer-1 Top sequence): 148 Ru

6mer-1-588 (RRLVRK)
Binding affinity (6mer-1 Top sequence): 153 Ru

6mer-1-589 (KKLQQK)
Binding affinity (6mer-1 Top sequence): 139 Ru

6mer-1-590 (RKGVTK)
Binding affinity (6mer-1 Top sequence): 142 Ru

6mer-1-591 (KKRLYR)
Binding affinity (6mer-1 Top sequence): 147 Ru

6mer-1-592 (RRWLSK)
Binding affinity (6mer-1 Top sequence): 135 Ru

6mer-1-593 (RKVYRK)
Binding affinity (6mer-1 Top sequence): 148 Ru

6mer-1-594 (KRQLQR)
Binding affinity (6mer-1 Top sequence): 121 Ru

6mer-1-595 (KKSLCK)
Binding affinity (6mer-1 Top sequence): 121 Ru

6mer-1-596 (RKGVLR)
Binding affinity (6mer-1 Top sequence): 148 Ru

6mer-1-597 (KRGFYK)
Binding affinity (6mer-1 Top sequence): 148 Ru

6mer-1-598 (RKWLSK)
Binding affinity (6mer-1 Top sequence): 142 Ru

6mer-1-599 (KKLYQR)
Binding affinity (6mer-1 Top sequence): 124 Ru

6mer-1-600 (KRGYCR)
Binding affinity (6mer-1 Top sequence): 139 Ru

6mer-1-601 (KKEWNK)
Binding affinity [1]: 27 Ru

6mer-1-602 (RKAEKR)
Binding affinity [1]: 18 Ru

6mer-1-603 (KRPHFK)
Binding affinity [1]: 13 Ru

6mer-1-604 (KKFTKK)
Binding affinity [1]: 24 Ru

6mer-1-605 (RKNADR)
Binding affinity [1]: 20 Ru

6mer-1-606 (RREWFR)
Binding affinity [1]: 15 Ru

6mer-1-607 (KKDHFR)
Binding affinity [1]: 22 Ru

6mer-1-608 (KKACMR)
Binding affinity [1]: 18 Ru

6mer-1-609 (RKNPVR)
Binding affinity [1]: 24 Ru

6mer-1-610 (KKHHER)
Binding affinity [1]: 27 Ru

6mer-1-611 (KKNCHK)
Binding affinity [1]: 23 Ru

6mer-1-612 (KRIMER)
Binding affinity [1]: 17 Ru

6mer-1-613 (KRIMKK)
Binding affinity [1]: 14 Ru

6mer-1-614 (KKEEER)
Binding affinity [1]: 12 Ru

6mer-1-615 (KKTSER)
Binding affinity [1]: 18 Ru

6mer-1-616 (KKNTIK)
Binding affinity [1]: 31 Ru

6mer-1-617 (KRHNVR)
Binding affinity [1]: 31 Ru

6mer-1-618 (RKCHVK)
Binding affinity [1]: 19 Ru

6mer-1-619 (KKIDKR)
Binding affinity [1]: 23 Ru

6mer-1-620 (RRKTAK)
Binding affinity [1]: 11 Ru

6mer-1-621 (RRMAGK)
Binding affinity [1]: 30 Ru

6mer-1-622 (KKCPNR)
Binding affinity [1]: 18 Ru

6mer-1-623 (RRTDWR)
Binding affinity [1]: 21 Ru

6mer-1-624 (KKPPAK)
Binding affinity [1]: 30 Ru

6mer-1-625 (KREDKK)
Binding affinity [1]: 33 Ru

6mer-1-626 (KRPDNR)
Binding affinity [1]: 27 Ru

6mer-1-627 (RRTWWR)
Binding affinity [1]: 29 Ru

6mer-1-628 (RRENEK)
Binding affinity [1]: 23 Ru

6mer-1-629 (RKMDAK)
Binding affinity [1]: 11 Ru

6mer-1-630 (KRMEPR)
Binding affinity [1]: 14 Ru

6mer-1-631 (RRYSDR)
Binding affinity [1]: 13 Ru

6mer-1-632 (RKDTAR)
Binding affinity [1]: 17 Ru

6mer-1-633 (RKIDAK)
Binding affinity [1]: 16 Ru

6mer-1-634 (KKNTMR)
Binding affinity [1]: 12 Ru

6mer-1-635 (KKTTWK)
Binding affinity [1]: 33 Ru

6mer-1-636 (RKYKDR)
Binding affinity [1]: 27 Ru

6mer-1-637 (RRFEFK)
Binding affinity [1]: 33 Ru

6mer-1-638 (KKESHR)
Binding affinity [1]: 20 Ru

6mer-1-639 (KRPNVR)
Binding affinity [1]: 24 Ru

6mer-1-640 (RRNCWR)
Binding affinity [1]: 25 Ru

6mer-1-641 (RREMFK)
Binding affinity [1]: 21 Ru

6mer-1-642 (KKYNGK)
Binding affinity [1]: 24 Ru

6mer-1-643 (KRYSMR)
Binding affinity [1]: 31 Ru

6mer-1-644 (RKTWFR)
Binding affinity [1]: 31 Ru

6mer-1-645 (RRTTIR)
Binding affinity [1]: 33 Ru

6mer-1-646 (RRCTGK)
Binding affinity [1]: 33 Ru

6mer-1-647 (RKYNVR)
Binding affinity [1]: 14 Ru

6mer-1-648 (KKFWEK)
Binding affinity [1]: 17 Ru

6mer-1-649 (RRIAGK)
Binding affinity [1]: 32 Ru

6mer-1-650 (RRCNNR)
Binding affinity [1]: 18 Ru

6mer-1-651 (KRICWK)
Binding affinity [1]: 27 Ru

6mer-1-652 (RRPEVK)
Binding affinity [1]: 26 Ru

6mer-1-653 (KRMTHR)
Binding affinity [1]: 15 Ru

6mer-1-654 (KRMNDR)
Binding affinity [1]: 23 Ru

6mer-1-655 (RKNMFR)
Binding affinity [1]: 12 Ru

6mer-1-656 (RRPTHK)
Binding affinity [1]: 28 Ru

6mer-1-657 (RRCTVR)
Binding affinity [1]: 17 Ru

6mer-1-658 (RKKEMK)
Binding affinity [1]: 20 Ru

6mer-1-659 (KKPSKR)
Binding affinity [1]: 29 Ru

6mer-1-660 (KKYHVK)
Binding affinity [1]: 31 Ru

6mer-1-661 (RKPKWR)
Binding affinity [1]: 14 Ru

6mer-1-662 (KKMTER)
Binding affinity [1]: 20 Ru

6mer-1-663 (KKFKDR)
Binding affinity [1]: 26 Ru

6mer-1-664 (KRDHIK)
Binding affinity [1]: 26 Ru

6mer-1-665 (KKCDGK)
Binding affinity [1]: 21 Ru

6mer-1-666 (KKAANK)
Binding affinity [1]: 18 Ru

6mer-1-667 (KRDSPK)
Binding affinity [1]: 32 Ru

6mer-1-668 (RKATVK)
Binding affinity [1]: 17 Ru

6mer-1-669 (KRNMAK)
Binding affinity [1]: 23 Ru

6mer-1-670 (KKDWNR)
Binding affinity [1]: 11 Ru

6mer-1-671 (KKNMVR)
Binding affinity [1]: 11 Ru

6mer-1-672 (RKMEIR)
Binding affinity [1]: 17 Ru

6mer-1-673 (RRAMPK)
Binding affinity [1]: 16 Ru

6mer-1-674 (RKHPKK)
Binding affinity [1]: 32 Ru

6mer-1-675 (KKIWKR)
Binding affinity [1]: 21 Ru

6mer-1-676 (KRCPWR)
Binding affinity [1]: 16 Ru

6mer-1-677 (KKCCFR)
Binding affinity [1]: 22 Ru

6mer-1-678 (KRMAAK)
Binding affinity [1]: 25 Ru

6mer-1-679 (KKAEER)
Binding affinity [1]: 30 Ru

6mer-1-680 (KKDPPR)
Binding affinity [1]: 27 Ru

6mer-1-681 (KKEWKK)
Binding affinity [1]: 32 Ru

6mer-1-682 (KKKDIR)
Binding affinity [1]: 30 Ru

6mer-1-683 (KRDSMR)
Binding affinity [1]: 16 Ru

6mer-1-684 (KRNNDR)
Binding affinity [1]: 20 Ru

6mer-1-685 (RRESWK)
Binding affinity [1]: 14 Ru

6mer-1-686 (KKYEVR)
Binding affinity [1]: 25 Ru

6mer-1-687 (RREWIK)
Binding affinity [1]: 23 Ru

6mer-1-688 (RKDEVR)
Binding affinity [1]: 33 Ru

6mer-1-689 (KRCPVR)
Binding affinity [1]: 11 Ru

6mer-1-690 (KREAER)
Binding affinity [1]: 21 Ru
